Legend:
[1] = molecular target: cynomolgus monkey CD3 (cynomolgus monkey); experiment: surface plasmon resonance, equilibrium binding analysis
[2] = molecular target: cynomolgus monkey HER2 (cynomolgus monkey); experiment: as above
human CD3 (human) = experiment: as above
[3] = molecular target: human HER2 expressed on target cells (BT-474, SKOV3, MCF-7, human cardiomyocytes) (human) (UniProt P04626); experiment: cell-based or functional assay
human HER2 (human) = human HER2 (human) (UniProt P04626); experiment: surface plasmon resonance, equilibrium binding analysis

Kd [1] [nM]	Kd [2] [nM]	Kd (human CD3 (human)) [nM]	Jurkat NFAT-Luciferase reporter T cell activation in the presence of BT-474 cells, EC50 [3] [nM]	Kd (human HER2 (human)) [nM]	fold reduction of affinity by masking, against AMX-818(PAT) [1] [fold]	fold reduction of affinity by masking, against AMX-818(PAT) [2] [fold]	fold reduction of affinity by masking, against AMX-818(PAT) (human CD3 (human)) [fold]	Substance	T cell-mediated cytotoxicity against BT474 cells (PBMC 1:1, 48 h, CellTiter-Glo), EC50 [3] [nM]	T cell-mediated cytotoxicity against SKOV3 cells (PBMC 1:1, 48 h, CellTiter-Glo), EC50 [3] [nM]	cytotoxicity against BT-474 tumor cells with PBMC effectors (1:1), IC50 [3] [nM]
21.5	2	26.3	0.07	–	–	–	–	AMX-818(PAT) (bispecific antibody)	0.0048	0.0034	0.005 to 0.011
140	20.1	160	–	24.9	6	10	6	AMX-818 (bispecific antibody)	49.4	44.5	–
